This assay concerns the target BDBV GP (BDBV). Briefly: ELISA, GP coated at 1 μg/mL, 5A8 from 10 μg/mL in 1:3 dilutions. Background: ELISA stands for enzyme-linked immunosorbent assay.

In CN111138528A one finds EC50 and fold weaker binding than to EBOV GP data, which are given here for one molecule.

B1: 单克隆抗体5A8 (antibody, V domains shown)
VH: EVQLLESGGGLVKPGGSLRLSCAASGFTFSDYYMNWIRQAPGKGLEWVSYISSSGKTIYYADSVKGRFTISRDNAKKSLYLQMNSLRAEDTAVYYCARDREIVISTTILLGSDHYAMDVWGQGTTVTVSS
VL: DIQMTQSPFTLSASVGDRVTITCRASQSINSYLNWYQQKPGKAPKLLIYSASSLQSGVPSRFSGSGSGTDFTLTISSLQPEDFAIYYCQQTYRTPYTFGQGTKVEIKT
Take B1: the EC50 (usually the concentration that produces a half-maximal response) was 0.126 µg/mL and the fold weaker binding than to EBOV GP is 10 fold.
